Positions count from the first letter of the chain named. Where two headings read alike, the source gives them in different places.
Experiments:
[1] = molecular target: T1, CW6W3.ECO.PP.002/.003 (rhHLA-Cw6/ARF) (human); test: SPR ProteOn XPR36, captured mAb; valid kinetic fit, range of two replicates
T1 construct: also called rhHLA-Cw6/ARFN; rHLA-Cw6/ARFN
Description: (§1) Anti-HLA-Cw6 mAbs were captured at ligand densities ranging from 100 to 200 response units. […] All analyses were conducted in PBST at 100 μL/min flow rate with association and dissociation times of 180 and 900 seconds, respectively. […] Analyte raw data was double referenced by subtraction of the blank surface response at “interspots” (to correct for refractive index changes and any non-specific interactions with the chip surface) and of the buffer blank response (to correct for any baseline drift resulting from mAb dissociation over time). Referenced data were globally fit to a 1:1 simple Langmuir binding model. Kinetic parameters were calculated for each mAb/antigen combination or interaction using Bio-Rad ProteOn Manager software (version 3.1.0.6) with parameter (kon, koff, Rmax) scope and type set to “Grouped” and “Fitted,” respectively.

A24_A*24:02 [2] = molecular target: T2, A24_A*24:02 (human, UniProt A*24:02); test: LABScreen beads
T2 construct: on LABScreen bead; also called HLA-A*24:02 (LABScreen class I bead)
T2 heavy chain: not shown

CW6W32 (rhHLA-Cw6/TRAT) [3] = molecular target: T3, CW6W32 (rhHLA-Cw6/TRAT) (human); test: SPR Biacore 8K, captured mAb; Kinetic fit not valid
T3 construct: also called CW6W32.009; rHLA-Cw6/TRAT

CW6W35.001 [4] = test: SPR Biacore 8K, captured mAb; Acceptable fit
Excerpt: (§2) To further characterize the ability of the antibodies to differentiate between class I MHC molecules.

[5] = molecular target: T4, CW6W36 (rhHLA-Cw6/ADAMTSL5) (human); test: SPR Biacore 8K, captured mAb; Acceptable fit
T4 construct: also called CW6W36.002; rHLA-Cw6/ADAMTSL5
Excerpt: as §2

CW6W51.001 [6] = test: SPR Biacore 8K, captured mAb; Acceptable fit
Excerpt: as §2

CW6W54.001 [7] = test: SPR Biacore 8K, captured mAb; Acceptable fit
Excerpt: as §2

CW6W53.001 [8] = test: SPR Biacore 8K, captured mAb; Acceptable fit
Excerpt: as §2

[9] = molecular target: T1, CW6W3.ECO.PP.002/.003 (rhHLA-Cw6/ARF); test: SPR ProteOn XPR36, captured mAb; valid kinetic fit, range of two replicates (upper end)
Description: as §1

[10] = molecular target: T4, CW6W36 (rhHLA-Cw6/ADAMTSL5); test: SPR ProteOn XPR36, captured mAb; valid kinetic fit, range of two replicates
Description: as §1

[11] = molecular target: T1, CW6W3.ECO.PP.002/.003 (rhHLA-Cw6/ARF); test: SPR ProteOn XPR36, captured mAb
Description: as §1

CW6W35.001 [12] = test: SPR Biacore 8K, captured mAb; Kinetic fit not valid
CW6W51.001 [13] = test: as above
CW6W54.001 [14] = test: as above
CW6W53.001 [15] = test: as above
[16] = molecular target: T4, CW6W36 (rhHLA-Cw6/ADAMTSL5); test: SPR ProteOn XPR36, captured mAb; valid kinetic fit, range of two replicates (second end)
Description: as §1

CW6W32 (rhHLA-Cw6/TRAT) [17] = molecular target: T3, CW6W32 (rhHLA-Cw6/TRAT); test: SPR ProteOn XPR36, captured mAb; valid kinetic fit;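 further: Anti-HLA-Cw6 mAbs captured at 100–200 RU, antigen flowed in PBST, 180 s association and 900 s dissociation, double-referenced sensorgrams globally fit to a 1:1 Langmuir model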
Description: as §1
A24_A*24:02 [18] = molecular target: T2, A24_A*24:02; test: LABScreen beads
[19] = molecular target: T5, rhHLA-Cw6 stably expressed on K562 cells (K562-rhHLA-Cw6) (human, UniProt P10321 25-366); test: MSD cell binding
T5 construct: also called K562-HLA-Cw6
Description: (§3) The blocking buffer was aspirated, 20 μl of prepared test antibodies were added to appropriate wells, and the plate was incubated further for 1 hour at RT. The plate was washed three times with 80 μl PBS, and then each well received 20 μl/well of a 1 μg/ml SulfoTag labeled secondary detection antibody solution. After a 1-hour incubation at RT, the plate was washed three times with 80 μl PBS, and 50 μl/well of a 1× MSD Read Buffer T (surfactant free) (MSD #R92TD-1) was added and the plate was read on an MSD Sector 600 Plate Reader.
T5 MHC heavy: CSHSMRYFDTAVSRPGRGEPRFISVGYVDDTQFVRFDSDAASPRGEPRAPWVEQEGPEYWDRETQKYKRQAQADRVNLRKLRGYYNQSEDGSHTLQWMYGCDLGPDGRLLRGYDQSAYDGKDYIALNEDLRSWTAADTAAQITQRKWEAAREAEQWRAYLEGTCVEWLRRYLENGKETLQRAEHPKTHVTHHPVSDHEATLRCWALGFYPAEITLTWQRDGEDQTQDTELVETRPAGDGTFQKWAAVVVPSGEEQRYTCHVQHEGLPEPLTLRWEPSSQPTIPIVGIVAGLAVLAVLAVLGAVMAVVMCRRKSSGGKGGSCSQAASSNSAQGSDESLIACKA

[20] = molecular target: T6, rhHLA-B7 stably expressed on K562 cells (K562-rhHLA-B7) (human, UniProt P01889 25-362); test: MSD cell binding
T6 construct: also called K562-rehHLA-B7
Description: as §3

CW6W55.ECO.PP.002 = test: SPR Biacore 8K, captured mAb; Kinetic fit not valid
[21] = molecular target: T1, CW6W3.ECO.PP.002/.003 (rhHLA-Cw6/ARF); test: SPR ProteOn XPR36, captured mAb; valid kinetic fit;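 on Kd: Anti-HLA-Cw6 mAbs captured at 100–200 RU, antigen flowed in PBST, 180 s association and 900 s dissociation, double-referenced sensorgrams globally fit to a 1:1 Langmuir model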;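 on koff: Anti-HLA-Cw6 mAbs captured at 100–200 RU, antigen flowed in PBST, 180 s association and 900 s dissociation, double-referenced sensorgrams globally fit to a 1:1 Langmuir model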
Description: as §1

[22] = molecular target: T4, CW6W36 (rhHLA-Cw6/ADAMTSL5); test: SPR ProteOn XPR36, captured mAb; valid kinetic fit;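 further: Anti-HLA-Cw6 mAbs captured at 100–200 RU, antigen flowed in PBST, 180 s association and 900 s dissociation, double-referenced sensorgrams globally fit to a 1:1 Langmuir model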
Description: as §1

CW6W47.001 = test: SPR Biacore 8K, captured mAb; Acceptable fit
Excerpt: as §2

CW6W56.ECO.PP.001 = test: SPR Biacore 8K, captured mAb; Acceptable fit
Excerpt: as §2

[23] = molecular target: T6, rhHLA-B7 stably expressed on K562 cells …; test: MSD cell binding; remark: listed apart in the source

T6 sequence (P01889 25-362 limits assumed): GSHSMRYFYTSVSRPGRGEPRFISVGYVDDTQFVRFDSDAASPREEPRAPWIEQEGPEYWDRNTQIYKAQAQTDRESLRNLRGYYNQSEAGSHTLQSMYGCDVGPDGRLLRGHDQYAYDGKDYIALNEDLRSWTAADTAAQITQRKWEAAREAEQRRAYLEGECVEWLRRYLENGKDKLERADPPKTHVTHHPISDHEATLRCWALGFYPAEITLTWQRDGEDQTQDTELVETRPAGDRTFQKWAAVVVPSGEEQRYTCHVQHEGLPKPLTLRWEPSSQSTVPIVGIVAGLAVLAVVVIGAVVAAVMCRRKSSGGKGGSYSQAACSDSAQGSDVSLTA

B1: CW6B175 (antibody, V domains shown)
VH: EVQLVESGGGLVQPGGSLRLSCAASGFTFTNYWMTWVRQAPGKGLEWVANIKQSGSEKYYVDSVKGRFTISRDNAKNSLYLQMNSLRAEDTAVYYCARTLYEWELEPFDYWGQGTLVTVSS
VL: SYVLTQPPSVSVAPGQTARITCGGNRIGSKSVHWYQQKPGQAPVLVVFDDSDRPSGIPERFSGSNSGITATLTISRVEAGDEADYYCQVWDSSNDHVVFGGGTKLTVL
notes: also called CW6B175.001; CW6M175 (DNA ID)
Kd [1]: 0.0285 nM | koff [1]: 0.000314 s⁻¹ | kon [1]: 1.05e+07 M⁻¹ s⁻¹ | binding result (A24_A*24:02 [2]): no binding (tested: 10 µg/ml) | Kd (CW6W32 (rhHLA-Cw6/TRAT) [3]): 0.663 nM | koff (CW6W32 (rhHLA-Cw6/TRAT) [3]): 0.284 s⁻¹ | kon (CW6W32 (rhHLA-Cw6/TRAT) [3]): 4.28e+08 M⁻¹ s⁻¹ | Kd (CW6W35.001 [4]): 0.12 nM | koff (CW6W35.001 [4]): 0.000126 s⁻¹ | kon (CW6W35.001 [4]): 1.05e+06 M⁻¹ s⁻¹ | Kd [5]: 1.87 nM | koff [5]: 0.0163 s⁻¹ | kon [5]: 8.73e+06 M⁻¹ s⁻¹ | Kd (CW6W51.001 [6]): 0.157 nM | koff (CW6W51.001 [6]): 0.000285 s⁻¹ | kon (CW6W51.001 [6]): 1.82e+06 M⁻¹ s⁻¹ | Kd (CW6W54.001 [7]): 0.128 nM | koff (CW6W54.001 [7]): 0.000842 s⁻¹ | kon (CW6W54.001 [7]): 6.6e+06 M⁻¹ s⁻¹ | Kd (CW6W53.001 [8]): 0.327 nM | koff (CW6W53.001 [8]): 0.00056 s⁻¹ | kon (CW6W53.001 [8]): 1.72e+06 M⁻¹ s⁻¹ | Kd [9]: 0.0346 nM | koff [9]: 0.000363 s⁻¹ | kon [9]: 1.1e+07 M⁻¹ s⁻¹

B2: CW6B130 (antibody, V domains shown)
VH: QLQLQESGPGLVKPSETLSLTCTVSGASISSINYYWGWIRQPPGKGLEWIGSFYYSGNTYYNPSLKSRVTISVDTSKNYFSLKLNSVTAADTAVYYCAREYYDSSGYYPFEPWGQGTLVTVSS
VL: B1 VL with N25D, R26N, K30E, F48Y, S51T, N65K, I68T, R76W, N94S
notes: also called CW6B130.001; CW6M130 (DNA ID)
Kd [10]: 0.0586 nM | koff [10]: 0.00124 s⁻¹ | kon [10]: 1.66e+07 M⁻¹ s⁻¹ | binding result [11]: binds | Kd (CW6W35.001 [12]): 6.04 nM | koff (CW6W35.001 [12]): 0.0101 s⁻¹ | kon (CW6W35.001 [12]): 1.67e+06 M⁻¹ s⁻¹ | Kd (CW6W32 (rhHLA-Cw6/TRAT) [3]): 0.622 nM | koff (CW6W32 (rhHLA-Cw6/TRAT) [3]): 0.00509 s⁻¹ | kon (CW6W32 (rhHLA-Cw6/TRAT) [3]): 8.2e+06 M⁻¹ s⁻¹ | Kd (CW6W51.001 [13]): 0.571 nM | koff (CW6W51.001 [13]): 0.000389 s⁻¹ | kon (CW6W51.001 [13]): 681000 M⁻¹ s⁻¹ | Kd (CW6W54.001 [14]): 0.0828 nM | koff (CW6W54.001 [14]): 0.00204 s⁻¹ | kon (CW6W54.001 [14]): 2.47e+07 M⁻¹ s⁻¹ | Kd (CW6W53.001 [15]): 0.205 nM | koff (CW6W53.001 [15]): 0.0054 s⁻¹ | kon (CW6W53.001 [15]): 2.63e+07 M⁻¹ s⁻¹ | Kd [16]: 0.0713 nM | koff [16]: 0.00097 s⁻¹ | kon [16]: 1.75e+07 M⁻¹ s⁻¹ | Kd (CW6W32 (rhHLA-Cw6/TRAT) [17]): 0.27 nM | koff (CW6W32 (rhHLA-Cw6/TRAT) [17]): 0.00272 s⁻¹ | kon (CW6W32 (rhHLA-Cw6/TRAT) [17]): 1.03e+07 M⁻¹ s⁻¹ | binding result (A24_A*24:02 [18]): no binding (tested: 10 µg/ml) | Kd [5]: 0.272 nM | koff [5]: 0.00184 s⁻¹ | kon [5]: 6.77e+06 M⁻¹ s⁻¹

B3: CW6B233 (antibody, V domains shown)
VH: QVQLQESGPGLVKPSETLSLTCTVSGNSIRSYYWSWIRQPAGKGLEWIGRIYISGNTNYNPSLKSRVTMSIDTSKNQFSLKLSSVTAADTAVYYCARLSGIDAFDIWGQGTMVTVSS
VL: DIQMTQSPSSLSASVGDRVTITCQASQDITNYLNWYQQKPGKAPKLLIYDASNLETGVPSRFSGSGSGTDFTFTISSLQPEDFATYYCQQYDNLPITFGQGTRLEIK
notes: also called CW6B233.001; CW6M233 (DNA ID)
HLA-Cw6 Selective (K562-rhHLA-Cw6 specific/K562-rhHLA-B7 specific) [19]: 44 ratio | HLA-Cw6 Specific (K562-rhHLA-Cw6/K562 Parent binding signal) [19]: 36 ratio | HLA-B7 Specific (K562-rhHLA-B7/K562 Parent binding signal) [20]: 0.8 ratio | Kd (CW6W32 (rhHLA-Cw6/TRAT) [3]): 3.73 nM | koff (CW6W32 (rhHLA-Cw6/TRAT) [3]): 0.00203 s⁻¹ | kon (CW6W32 (rhHLA-Cw6/TRAT) [3]): 544000 M⁻¹ s⁻¹ | Kd (CW6W55.ECO.PP.002): 7.3 nM | koff (CW6W55.ECO.PP.002): 1.22 s⁻¹ | kon (CW6W55.ECO.PP.002): 1.67e+08 M⁻¹ s⁻¹ | Kd (CW6W54.001 [14]): 0.798 nM | koff (CW6W54.001 [14]): 0.000484 s⁻¹ | kon (CW6W54.001 [14]): 607000 M⁻¹ s⁻¹ | Kd [21]: 0.29 nM | koff [21]: 0.000293 s⁻¹ | kon [21]: 1.02e+06 M⁻¹ s⁻¹ | Kd [22]: 1 nM | koff [22]: 0.00355 s⁻¹ | kon [22]: 3.56e+06 M⁻¹ s⁻¹ | Kd (CW6W32 (rhHLA-Cw6/TRAT) [17]): 1.55 nM | koff (CW6W32 (rhHLA-Cw6/TRAT) [17]): 0.00234 s⁻¹ | kon (CW6W32 (rhHLA-Cw6/TRAT) [17]): 1.51e+06 M⁻¹ s⁻¹ | Kd (CW6W35.001 [4]): 3.59 nM | koff (CW6W35.001 [4]): 0.000758 s⁻¹ | kon (CW6W35.001 [4]): 211000 M⁻¹ s⁻¹ | Kd (CW6W47.001): 9.63 nM | koff (CW6W47.001): 0.00801 s⁻¹ | kon (CW6W47.001): 832000 M⁻¹ s⁻¹ | Kd (CW6W56.ECO.PP.001): 1.26 nM | koff (CW6W56.ECO.PP.001): 0.00107 s⁻¹ | kon (CW6W56.ECO.PP.001): 849000 M⁻¹ s⁻¹ | Kd [5]: 3.82 nM | koff [5]: 0.00433 s⁻¹ | kon [5]: 1.14e+06 M⁻¹ s⁻¹ | Kd (CW6W51.001 [6]): 1.18 nM | koff (CW6W51.001 [6]): 0.000514 s⁻¹ | kon (CW6W51.001 [6]): 437000 M⁻¹ s⁻¹ | Kd (CW6W53.001 [8]): 2.09 nM | koff (CW6W53.001 [8]): 0.00073 s⁻¹ | kon (CW6W53.001 [8]): 350000 M⁻¹ s⁻¹ | binding result [23]: no binding

B4: CW6B228 (antibody, V domains shown)
VH: B3 VH
VL: B3 VL with T30N, N53S, N93D
notes: also called CW6B228.001; CW6M228 (DNA ID)
HLA-Cw6 Selective (K562-rhHLA-Cw6 specific/K562-rhHLA-B7 specific) [19]: 78 ratio | HLA-Cw6 Specific (K562-rhHLA-Cw6/K562 Parent binding signal) [19]: 75 ratio | HLA-B7 Specific (K562-rhHLA-B7/K562 Parent binding signal) [20]: 1 ratio | Kd [21]: 0.04 nM | koff [21]: 0.000178 s⁻¹ | kon [21]: 4.89e+06 M⁻¹ s⁻¹ | Kd [22]: 0.05 nM | koff [22]: 0.000732 s⁻¹ | kon [22]: 1.52e+07 M⁻¹ s⁻¹ | Kd (CW6W32 (rhHLA-Cw6/TRAT) [17]): 0.09 nM | koff (CW6W32 (rhHLA-Cw6/TRAT) [17]): 0.000534 s⁻¹ | kon (CW6W32 (rhHLA-Cw6/TRAT) [17]): 5.98e+06 M⁻¹ s⁻¹ | binding result [23]: no binding

Source: patent US20200317791A1 (Janssen / Centocor, published 2020)
